{"source": "paper PMC3712912", "about": "“Dynactin Subunit p150^Glued Is a Neuron-Specific Anti-Catastrophe Factor” (PLoS Biology, 2013)", "key": {"[1]": {"target": "tubulin (soluble tubulin dimers, bovine brain) (bovine) (UniProt Q6B856)", "assay": "SEC; polypeptides incubated at the indicated molar ratio with 30 µM tubulin 10 min on ice; Superdex 200 10/300 GL, BRB20 pH 7.1 with 125 mM KCl and 10 mM imidazole (or increasing KCl, Figure 3C), eluted at 4 °C"}, "[2]": {"target": "tubulin (soluble tubulin dimers, bovine brain) (bovine) (UniProt Q6B856)"}, "[3]": {"target": "Taxol-stabilized microtubules (polymerized bovine brain tubulin) (bovine) (UniProt Q6B856)", "assay": "co-sedimentation; 0.4 µM dimeric constructs with increasing concentrations of Taxol-stabilized microtubules, 37 °C 20 min, centrifuged at 100 k rpm; supernatant and pellet by SDS-PAGE and densitometry"}, "[4]": {"target": "T1, Taxol-stabilized microtubules (polymerized bovine brain tubulin) (bovine, UniProt Q6B856 1-445)", "assay": "co-sedimentation; 0.4 µM dimeric constructs with increasing concentrations of Taxol-stabilized microtubules, 37 °C 20 min, centrifuged at 100 k rpm; supernatant and pellet by SDS-PAGE and densitometry", "settings": "both partners purified"}, "[5]": {"target": "the molecule itself", "assay": "cross-linking; 0.5 µM dimeric constructs in BRB20 with 125 mM NaCl and 1 mM DTT, 0.5% glutaraldehyde on ice for 2 h; SDS-PAGE and colloidal Coomassie staining"}, "[6]": {"target": "T1, Taxol-stabilized microtubules …", "assay": "co-sedimentation; 0.1 µM C-terminal GFP-tagged constructs with increasing concentrations of Taxol-stabilized microtubules, 37 °C 20 min, centrifuged; depletion from the supernatant monitored by fluorimetry", "settings": "both partners purified"}}, "data": [{"molecule": "p150 Nt-GCN4 (human p150Glued amino acids 1–210, GCN4 coiled-coil, linker, C-terminal 6×-His) (from UniProt Q14203-1 1-210) (domain or fragment)", "values": [{"measurement": "stoichiometry N (p150∶tubulin molar ratio)", "setting": "[1]", "value": 1}, {"measurement": "catastrophe frequency, TIRF elongation assay from GMPCPP seeds, 100–200 nM p150 Nt-GCN4 (fold reduction)", "setting": "[2]", "value": 4, "unit": "fold"}, {"measurement": "microtubule polymerization rate, TIRF elongation assay from GMPCPP seeds, 100–200 nM p150 Nt-GCN4", "setting": "[2]", "value": 2, "unit": "fold"}]}, {"molecule": "Δ5–7 Nt-GCN4 (p150Glued amino acids 1–210 deleted for exons 5–7, GCN4 coiled-coil, linker, C-terminal 6×-His) (from UniProt Q14203-1 1-210) (domain or fragment)", "values": [{"measurement": "Kd", "setting": "[3]", "value": 470, "unit": "nM"}]}, {"molecule": "p150 Nt-GCN4 (human p150Glued amino acids 1–210, GCN4 coiled-coil, linker, C-terminal 6×-His) (domain or fragment, p150Glued (DCTN1), human, amino acids 1-210, NM_004082.4; holds the CAP-Gly and basic domains; short linker before the C-terminal 6×-His tag; Dimer through the GCN4 coiled-coil that replaces CC1 of p150Glued; vector pET-29a; also called dimeric p150 Nt-GCN4; p150 Nt-GCN4-His; source: Rosetta E. coli, purified (Ni Sepharose, Mono S, Superdex 200); not shown: His6, C-terminal, kept) MAQSKRHVYSRTPSGSRMSAEASARPLRVGSRVEVIGKGHRGTVAYVGATLFATGKWVGVILDEAKGKNDGTVQGRKYFTCDEGHGIFVRQSQIQVFEDGADTTSPETPDSSASKVLKREGTDTTAKTSKLRGLKPKKAPTARKTTTRRPKPTRPASTGVAGASSSLGPSGSASAGELSSSEPSTPAQTPLAAPIIPTPVLTSPGAVPPLVMKQLEDKVEELLSKNYHLENEVARLKKLVGEAAAADPPVAT", "values": [{"measurement": "Kd", "setting": "[4]", "value": 290, "unit": "nM"}, {"measurement": "binding result", "setting": "[5]", "value": "binds"}]}, {"molecule": "Q74P Nt-GCN4 (p150 Nt-GCN4 with the Perry syndrome mutation Q74P) (domain or fragment, p150Glued (DCTN1), human, amino acids 1-210, NM_004082.4, with the disease mutation Q74P; short linker before the C-terminal 6×-His tag; also called Q74P p150 Nt-GCN4; source: Rosetta E. coli, purified immediately before experimentation with a final gel filtration step) MAQSKRHVYSRTPSGSRMSAEASARPLRVGSRVEVIGKGHRGTVAYVGATLFATGKWVGVILDEAKGKNDGTVPGRKYFTCDEGHGIFVRQSQIQVFEDGADTTSPETPDSSASKVLKREGTDTTAKTSKLRGLKPKKAPTARKTTTRRPKPTRPASTGVAGASSSLGPSGSASAGELSSSEPSTPAQTPLAAPIIPTPVLTSPGAVPPLVMKQLEDKVEELLSKNYHLENEVARLKKLVGEAAAADPPVAT", "values": [{"measurement": "binding result", "setting": "[5]", "value": "binds"}]}, {"molecule": "p150 Nt-GCN4 with C-terminal EGFP-6×-His (domain or fragment, p150Glued (DCTN1), human, amino acids 1-210, NM_004082.4; short linker, followed by EGFP-6×-His; also called C-terminal GFP-tagged dimeric construct; source: Rosetta E. coli, purified; not shown: EGFP, C-terminal, kept) MAQSKRHVYSRTPSGSRMSAEASARPLRVGSRVEVIGKGHRGTVAYVGATLFATGKWVGVILDEAKGKNDGTVQGRKYFTCDEGHGIFVRQSQIQVFEDGADTTSPETPDSSASKVLKREGTDTTAKTSKLRGLKPKKAPTARKTTTRRPKPTRPASTGVAGASSSLGPSGSASAGELSSSEPSTPAQTPLAAPIIPTPVLTSPGAVPPLVMKQLEDKVEELLSKNYHLENEVARLKKLVGEAAAADPPVAT", "values": [{"measurement": "Kd", "setting": "[6]", "value": 340, "unit": "nM"}]}, {"molecule": "p135 Nt-GCN4 (MMRQ, p150Glued amino acids 139–210, GCN4 coiled-coil, linker, C-terminal 6×-His) (domain or fragment, N-terminal MMRQ replicating the endogenous expressed p135 spliceform of p150Glued (DCTN1); p150Glued (DCTN1), human, amino acids 139-210 of p150Glued, NM_004082.4; lacks the CAP-Gly domain and exon 5; short linker before the C-terminal 6×-His tag; Recapitulates the neuronally enriched p135 splice form; also called p135 dimer; source: Rosetta E. coli, purified (Ni Sepharose, Mono S, Superdex 200); …) MMRQAPTARKTTTRRPKPTRPASTGVAGASSSLGPSGSASAGELSSSEPSTPAQTPLAAPIIPTPVLTSPGAVPPLVMKQLEDKVEELLSKNYHLENEVARLKKLVGEAAAADPPVAT", "values": [{"measurement": "binding result", "setting": "[5]", "value": "binds"}]}, {"molecule": "p150 Nt with C-terminal EGFP-6×-His (domain or fragment, human, p150Glued (DCTN1), human, amino acids 1-210, NM_004082.4; short linker, followed by EGFP-6×-His; also called C-terminal GFP-tagged monomeric construct; source: Rosetta E. coli, purified; not shown: EGFP, C-terminal, kept) MAQSKRHVYSRTPSGSRMSAEASARPLRVGSRVEVIGKGHRGTVAYVGATLFATGKWVGVILDEAKGKNDGTVQGRKYFTCDEGHGIFVRQSQIQVFEDGADTTSPETPDSSASKVLKREGTDTTAKTSKLRGLKPKKAPTARKTTTRRPKPTRPASTGVAGASSSLGPSGSASAGELSSSEPSTPAQTPLAAPIIPTPVLTSPGAVPPLAAAADPPVAT", "values": [{"measurement": "Kd", "setting": "[6]", "value": 890, "unit": "nM"}]}]}
